Test results as given in paper PMC11112747, “Cyanovirin-N Binding to N-Acetyl-D-glucosamine Requires Carbohydrate-Binding Sites on Two Different Protomers” (Biochemistry, 2024).
Values joined by “and” are separate entries in the source; they are usually repeats but may differ in a detail not shown here. Identical values can stand only once. Like-named read-outs stand apart in the source and are kept apart here.

Assays:
CVN-E41T = biological target: T1, CVN-E41T (Nostoc ellipsosporum, UniProt P81180, E41T); assay: Isothermal titration calorimetry, monomeric CVN-E41T titrated into 6 uM GlcNAc in the cell, PBS pH 7.4, 298 K, one-set of sites model, single biological replicates.; type: binding; conditions: n = 1; read-out: Affinity Kd
T1 construct: His-tag
Protocol: (§1) Calorimetric titrations were carried out using an ITC200 device (Malvern Panalytical, Malvern, UK). The concentration of mutant E41T dimer and monomeric variants CVN-E41T or CVN-E41A was 200 μM titrant of these proteins to the ligands ManNAc and GlcNAc in the cell. […] The protein concentrations were 44 μM (304 μM) CVN2L0 and 465 μM CVN-E41T in the ManNAc experiments, respectively, and determined to be between 200 and 300 μM for the GlcNAc experiment. Aliquots (2 μL) of CV-N titrant were injected at 2 min intervals into the sugar solution in the calorimetry cell with a total of 19 injections from a stirring syringe (operated at 750 rpm). […] The values for enthalpy, binding affinity, and stoichiometry from the binding curve and the free energy and entropy of interaction were calculated using Microcal Origin v7.0 (OriginLab, Northampton, Massachusetts, USA) according to the standard expressions: ΔG = −RTln Ka, and ΔG = ΔH–TΔS.
(§2) The lectin interaction with peptide residues was enhanced or reduced by replacing a single, or two, disulfide bond(s) by ionic residue pairs (Glu and Arg) at positions E58 and R73 in CVN2, resulting in binding of dimannosylated peptide (DM) by double-mutant C58E-C73R (CVN2L0-V5) (Figure S2C) with high polar interactions.[12] […] The binding stoichiometry was calculated from a simplex fit. […]

CVN-E41A = biological target: T2, CVN-E41A (Nostoc ellipsosporum, UniProt P81180, E41A); assay: Isothermal titration calorimetry, protein titrated into GlcNAc in the cell, PBS pH 7.4, 298 K, one-set of sites model.; type: binding; conditions: SEM, n = 3; read-out: affinity Kd
T2 construct: monomeric variant; His-tag
Protocol: (§3) Calorimetric titrations were carried out using an ITC200 device (Malvern Panalytical, Malvern, UK). The concentration of mutant E41T dimer and monomeric variants CVN-E41T or CVN-E41A was 200 μM titrant of these proteins to the ligands ManNAc and GlcNAc in the cell. […] The protein concentrations were 44 μM (304 μM) CVN2L0 and 465 μM CVN-E41T in the ManNAc experiments, respectively, and determined to be between 200 and 300 μM for the GlcNAc experiment. Aliquots (2 μL) of CV-N titrant were injected at 2 min intervals into the sugar solution in the calorimetry cell with a total of 19 injections from a stirring syringe (operated at 750 rpm). Controls were prepared with identical amounts of titrant injected into PBS buffer at pH 7.4 at 298 K, and control values were subtracted from the results of the actual experiments. The values for enthalpy, binding affinity, and stoichiometry from the binding curve and the free energy and entropy of interaction were calculated using Microcal Origin v7.0 (OriginLab, Northampton, Massachusetts, USA) according to the standard expressions: ΔG = −RTln Ka, and ΔG = ΔH–TΔS.
(§4) Figure 2 ITC data showing the binding of CVN2, mutant E41T dimer, and CVN-E41A to GlcNAc. (A) Schematic representation of monomeric CVN-E41A and dimeric CVN2 binding to GlcNAc. (B) Binding affinity of CVN2 to GlcNAc. Thermogram is shown, and the binding curve fitted to the one-set of sites model. (C) Mutant E41T dimer binds to GlcNAc. Thermogram is shown, and binding analyzed based on one-set of sites binding model. T = 298 K. Ligand in cell. […] Thermogram is shown, and binding analyzed based on one-set of sites binding model. […]
as §2

mutant E41T dimer [1] = biological target: T3, mutant E41T dimer (Nostoc ellipsosporum, UniProt P81180, E41T); assay: as above; type: binding; conditions: SEM, n = 3; read-out: affinity Kd
T3 construct: His-tag
Protocol: as §3, §4, §2

CVN2 (CVN2L0) [2] = biological target: T4, CVN2 (CVN2L0) (Nostoc ellipsosporum, UniProt P81180); assay: as above; type: binding; conditions: SEM, n = 3; read-out: affinity Kd
T4 construct: tandem-linked domain-swapped dimer of two CV-N, zero-linker length; His-tag
T4 sequence (P81180 1-101): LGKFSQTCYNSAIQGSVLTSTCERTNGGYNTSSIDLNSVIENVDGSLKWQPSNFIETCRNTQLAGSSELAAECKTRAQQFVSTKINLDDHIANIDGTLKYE
Protocol: as §3, §4, §2

mutant E41T dimer [3] = biological target: T3, mutant E41T dimer; assay: Isothermal titration calorimetry, mutant E41T dimer with ManNAc in the cell, PBS pH 7.4, 298 K, calculated with N = 2.; type: binding
Protocol: as §1
In comparison, CV-N binding to GlcNAc, the N-linked glycan unit in N-glycosylation sites that is also part of bacterial cell walls with beta-linked bonds to N-acetylmuramic acid (MurNAc), was rather unspecific and measured in the micromolar range (Figure S1B).
Figure S1. […] Calculated energies of interaction, affinities, and stoichiometry for CV-N binding and […]
model. (F) Mutant E41T dimer binding to ManNAc is calculated based on N=2, ligand in the cell analysis. […]

CVN2 (CVN2L0) [4] = biological target: T4, CVN2 (CVN2L0); assay: Isothermal titration calorimetry, CVN2 titrated into ManNAc in the cell, PBS pH 7.4, 298 K, one-set of sites model.; type: binding; conditions: SEM, n = 3; read-out: affinity Kd
Protocol: as §1, with “ΔH–TΔS. […]” for “ΔH–TΔS.”
Specific carbohydrate–protein interactions with polar and charged residues were delineated from the solution structure with Manα1 → 2Man disaccharide bound to domain B.[5] […] A low-affinity binding site was exposed and calculated to bind ManNAc with micromolar concentrations of CV-N and CVN2 (Figure S1A and Figure 1B). […]

[5] = STD-NMR interaction with ManNAc; type: binding; conditions: protein 100 μM, carbohydrate/CV-N = 10:1, T = 298 K
Protocol: (§5) NMR experiments were performed using a Bruker 600 MHz spectrometer, and STD spectra were obtained with −0.05 ppm as irradiation frequency and 2.94 s of saturation time. An NMR sample of CV-N, its mutant, and dimer were prepared in 100 mM PBS, pH 7.0, each added to the carbohydrate solutions in phosphate buffer for a final protein concentration of 100 μM and a ratio of carbohydrate/CV-N = 10:1.

[6] = STD-NMR interaction with GlcNAc; type: binding; conditions: protein 100 μM, carbohydrate/CV-N = 10:1, T = 298 K
Protocol: as §5

[7] = cited from earlier work
[8] = ITC binding of CV-N, CVN2 and variants to ManNAc; conditions: for Kd: two-sets of sites model
Protocol: as §3

[9] = ITC binding of CVN2 to dimannosylated peptide (DM); conditions: one-set of sites model, T=298K, Figure S2D

## CC(=O)N[C@H]1C(O)O[C@H](CO)[C@@H](O)[C@@H]1O (stereo partly drawn) [GlcNAc, N-acetyl-D-glucosamine]
CVN-E41T
  Kd: 728 nM and 397 nM and 418 nM
CVN-E41A
  Kd: 2500 ± 2000 nM
Mutant E41T dimer [1]
  Kd: 5890 ± 320 nM
CVN2 (CVN2L0) [2]
  Kd: 852 ± 235 nM

## CC(=O)N[C@@H]1C(O)O[C@H](CO)[C@@H](O)[C@@H]1O (stereo partly drawn) [ManNAc, N-acetylmannosamine]
Mutant E41T dimer [3]
  Kd: 110000 nM
CVN2 (CVN2L0) [4]
  Kd: 1400 ± 139 nM

B1: Cyanovirin-N (protein, UniProt P81180 1-101, looked up)
Cyanovirin-N: LGKFSQTCYNSAIQGSVLTSTCERTNGGYNTSSIDLNSVIENVDGSLKWQPSNFIETCRNTQLAGSSELAAECKTRAQQFVSTKINLDDHIANIDGTLKYE
[5]
  STD-NMR interaction with ManNAc: hydrogen bonding
[6]
  STD-NMR interaction with GlcNAc: interaction
[7]; deeper high-affinity binding pocket, read-out: equilibrium Kd
  Kd: ~140 nM
[7]; domain A (low-affinity site), read-out: Kd
  Kd: 1500 nM

B2: CVN-E41T: CV-N binding-site variant with single-point mutation E41T, generated by alanine to threonine substitution (protein, UniProt P81180 1-101, looked up, variant E41T)
Cyanovirin-N: LGKFSQTCYNSAIQGSVLTSTCERTNGGYNTSSIDLNSVITNVDGSLKWQPSNFIETCRNTQLAGSSELAAECKTRAQQFVSTKINLDDHIANIDGTLKYE
[5]
  STD-NMR interaction with ManNAc: hydrogen bonding
[8]; one-set of sites model, Figure S3A
  binding to ManNAc (ITC): no binding
[8]; site 1, read-out: KD1
  Kd: 712000 nM
[8]; site 2, read-out: KD2
  Kd: 17600 nM
[6]
  STD-NMR interaction with GlcNAc: interaction

B3: CVN2: tandem-linked dimeric CVN2 with zero-linker length; tandem repeat of two CV-N molecules (protein, UniProt P81180 1-101, looked up)
Cyanovirin-N: LGKFSQTCYNSAIQGSVLTSTCERTNGGYNTSSIDLNSVIENVDGSLKWQPSNFIETCRNTQLAGSSELAAECKTRAQQFVSTKINLDDHIANIDGTLKYE
modifications: tandem repeat dimer, zero linker
notes: tandem-linked dimeric CVN2 with zero-linker length; tandem repeat of two CV-N molecules
[9]
  Kd: 3940 nM
[8]; site 2, read-out: KD2
  Kd: 2.6 nM
[6]
  STD-NMR interaction with GlcNAc: interaction
